{"source": "paper PMC4125116", "key": {"[1]": {"biological_target": "BldM fused to the T18 or the T25 fragment of adenylate cyclase (BACTH) (Streptomyces venezuelae)", "assay": "two-hybrid; bacterial two-hybrid (BACTH), T18 (pUT18) and T25 (pKT25) fusions in E. coli BTH101; transformants grown at 30°C for two days; β-galactosidase assays of four independent clones"}, "[2]": {"biological_target": "WhiI fused to the T18 or the T25 fragment of adenylate cyclase (BACTH) (Streptomyces venezuelae)", "assay": "two-hybrid; bacterial two-hybrid (BACTH), T18 (pUT18) and T25 (pKT25) fusions in E. coli BTH101; transformants grown at 30°C for two days; β-galactosidase assays of four independent clones"}}}
{"substance": "WhiI fused to the T18 or the T25 fragment of adenylate cyclase (BACTH) (natural protein)", "values": [{"measurement": "β-galactosidase activity (Miller units)", "setting": "[1]", "result": 3000, "unit": "Miller units"}]}
{"substance": "BldM fused to the T18 or the T25 fragment of adenylate cyclase (BACTH) (natural protein)", "values": [{"measurement": "β-galactosidase activity (Miller units)", "setting": "[1]", "result": 750, "unit": "Miller units"}, {"measurement": "β-galactosidase activity (Miller units)", "setting": "[2]", "result": 3000, "unit": "Miller units"}]}
